Experimental data taken from article PMC4624681 (2015).
Changes are numbered by the printed parent chain.

T1: Zaire GP (1–320) with a His tag (Ebolavirus, Zaire strain, UniProt Q05320 33-320)
T1 chain: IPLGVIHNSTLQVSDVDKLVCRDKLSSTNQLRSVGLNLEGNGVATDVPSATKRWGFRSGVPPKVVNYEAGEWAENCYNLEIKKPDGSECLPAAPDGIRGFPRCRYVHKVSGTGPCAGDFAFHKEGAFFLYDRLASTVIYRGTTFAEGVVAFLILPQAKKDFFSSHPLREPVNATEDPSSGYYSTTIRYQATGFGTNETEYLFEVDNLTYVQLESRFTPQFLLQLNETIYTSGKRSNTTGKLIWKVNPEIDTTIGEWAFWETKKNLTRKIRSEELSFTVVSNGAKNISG

B1: T41 (BC-CC’-FG) chimera: hTIM-4 Ig V with the BC, CC’ and FG loops of hTIM-1 (domain or fragment)
chain: VTSETVVTEVLGHRVTLPCLYSGAVTSMCWNRGSCSLFTCKEALIRTDGMRVTSRKSAKYRLQGTIPRGDVSLTILNPSESDSGVYCCRIEHRGWFNDVKINVRLNLQRASTT
B2: T41 (BC-CC’) chimera: hTIM-4 Ig V with the BC and CC’ loops of hTIM-1 (domain or fragment)
chain: B1 chain with H92V, R93P
B3: T41 (CC’-FG) chimera: hTIM-4 Ig V with the CC’ and FG loops of hTIM-1 (domain or fragment)
chain: VTSETVVTEVLGHRVTLPCLYSSWSHNSNSMCWNRGSCSLFTCKEALIRTDGMRVTSRKSAKYRLQGTIPRGDVSLTILNPSESDSGVYCCRIEHRGWFNDVKINVRLNLQRASTT
B4: T14 (FG) chimera: hTIM-1 Ig V with the FG loop of hTIM-4 (domain or fragment)
chain: VKVGGEAGPSVTLPCHYSGAVTSMCWNRGSCSLFTCQNGIVWTNGTHVTYRKDTRYKLLGDLSRRDVSLTIENTAVSDSGVYCCRVEVPGWFNDMKITVSLEIVPPKV

Target: T1, Zaire GP (1–320) with a His tag
Experiment: SPR

Binder	Kd [µM]
B1	72.4
B2	73.2
B3	208
B4	57.9
